Reference: article PMC4264199, “Peptide Array on Cellulose Support—A Screening Tool to Identify Peptides with Dipeptidyl-Peptidase IV Inhibitory Activity within the Sequence of α-Lactalbumin” (International Journal of Molecular Sciences, 2014)
Ends that are not written are not given here.

Target: T1, dipeptidyl-peptidase IV (DPP-IV) (Homo sapiens, UniProt P27487)
T1 construct: purchased Creative BioMart (Shirley, NY, USA); host or cells: HEK293 human cells
Test: DPP-IV inhibition assay on SPOT-synthesized peptides (cleaved from cellulose membrane)
Assay type: biochemical
Settings: peptides cleaved from cellulose membrane, concentration not known (semi-quantitative); averages of four determinations from two experiments
From the text: Recombinant human dipeptidyl-peptidase IV (DPP-IV, EC 3.4.14.5, expressed in HEK293 human cells, >95% purity, activity >5500 pmoles Gly–Pro–7-amido-4-methylcoumarin/min/µg) was purchased from Creative BioMart (Shirley, NY, USA) while polyclonal goat DPP-IV antibody and polyclonal donkey anti-goat secondary antibody conjugated to horseradish peroxidase were obtained from R&D Systems (Minneapolis, MN, USA). Pierce™ ECL western blotting substrate and protein-free (TBS) blocking buffer were from Thermo Scientific (Rockford, IL, USA). Gly–Pro–p-nitroanilide (H-Gly–Pro–p-NA∙HCl) was purchased from Bachem Americas (Torrance, CA, USA). Synthesized peptides (≥95% purity) were prepared and purified by GL Biochem (Shanghai) Ltd. (Shanghai, China).
Peptide arrays of deca-peptides spanning the entire α-lactalbumin sequence with a frame shift of one amino acid between successive sequences were prepared by Kinexus Bioinformatics Corporation (Vancouver, BC, Canada). The peptides were synthesized from the C-terminal amino acid using the SPOT technology consisting of the stepwise coupling of the Fmoc-protected amino acids and cleavage of the side chain protection groups. The α-lactalbumin-derived peptides were synthesized on trioxatridecanediamine (TOTD) and β-alanine-modified Whatman 540 cellulose membranes for the binding and inhibition assays, respectively. For the inhibition assay, the peptides were synthesized in large dots (5–7 mm in diameter) and the quality of the synthesis was verified by HPLC analysis of quality controls spots included on the membranes.
In order to determine the effect of the SPOT-synthesized peptides on the activity of the DPP-IV enzyme, the peptides were first cleaved from the cellulose support by incubating the membranes with gaseous ammonia overnight. Peptide spots (5 mm in diameter) were then punched out using a single-hole punch and transferred into microcentrifuge tubes containing 150 µL of acetonitrile (50% in 100 mM Tris–HCl buffer pH 8.0). The peptide solution (50 µL) was pipetted into a 96-well microplate with 35 µL of the chromogenic substrate Gly–Pro–p-NA (0.29 mM in 100 mM Tris–HCl buffer pH 8.0). The mixture was pre-incubated for 10 min at 37 °C, whereupon 15 µL of DPP-IV (25 mU/mL) was added and the enzymatic reaction was carried out for 30 min at 37 °C. The reaction was then terminated by addition of 100 µL of 1 M sodium acetate buffer pH 4.0 and the absorbance of the released p-nitroaniline was measured at 405 nm using a Tecan Infinite® 200 Pro microplate reader (ESBE Scientific, Markham, ON, Canada). Positive and negative controls (DPP-IV activity with no inhibitor and no DPP-IV activity, respectively) were prepared using punched peptide-free cellulose spots from the same membrane used for peptide synthesis, and adding Tris-HCl buffer in place of the sample and in place of the sample and enzyme solution, respectively.
One unit of DPP-IV was defined as the concentration of enzyme that releases 1 µmol per min of p-nitroaniline from Gly–Pro–p-NA (100 µM) at 37 °C and pH 8.0.

T1 sequence (P27487 whole entry): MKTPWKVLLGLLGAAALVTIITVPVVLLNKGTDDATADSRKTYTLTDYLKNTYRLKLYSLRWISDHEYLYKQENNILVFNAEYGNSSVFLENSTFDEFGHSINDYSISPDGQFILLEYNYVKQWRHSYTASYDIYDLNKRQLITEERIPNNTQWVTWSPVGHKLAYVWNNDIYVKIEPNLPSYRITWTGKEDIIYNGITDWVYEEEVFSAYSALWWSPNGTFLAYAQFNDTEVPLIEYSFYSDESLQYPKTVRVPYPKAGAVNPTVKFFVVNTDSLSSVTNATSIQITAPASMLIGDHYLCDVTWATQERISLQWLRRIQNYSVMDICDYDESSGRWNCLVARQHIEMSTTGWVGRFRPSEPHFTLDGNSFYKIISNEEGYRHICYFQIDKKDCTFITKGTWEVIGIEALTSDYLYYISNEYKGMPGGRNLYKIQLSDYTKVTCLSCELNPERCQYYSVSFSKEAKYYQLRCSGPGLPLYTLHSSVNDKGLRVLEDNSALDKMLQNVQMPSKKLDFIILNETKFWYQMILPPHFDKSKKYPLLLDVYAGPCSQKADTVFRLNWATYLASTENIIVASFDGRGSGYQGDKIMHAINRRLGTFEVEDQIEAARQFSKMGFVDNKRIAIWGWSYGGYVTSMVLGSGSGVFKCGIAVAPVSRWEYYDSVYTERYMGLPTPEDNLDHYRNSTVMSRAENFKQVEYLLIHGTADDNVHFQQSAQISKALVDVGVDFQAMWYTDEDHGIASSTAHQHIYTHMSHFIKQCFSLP

Row | Substance | Percent inhibition of DPP-IV activity, SPOT-synthesized deca-peptides [%]
1 | A2: α-lactalbumin-derived deca-peptide, residues 2–11 (Table S1) (QFTKCELSQL; UniProt P00709 21-30, looked up, fragment) | 16
2 | A3: α-lactalbumin-derived deca-peptide, residues 3–12 (Table S1) (FTKCELSQLL; UniProt P00709 22-31, looked up, fragment) | 20
3 | A4: α-lactalbumin-derived deca-peptide, residues 4–13 (Table S1) (TKCELSQLLK; UniProt P00709 23-32, looked up, fragment) | 20
4 | A5: α-lactalbumin-derived deca-peptide, residues 5–14 (Table S1) (KCEVFRELKD; UniProt P00711 24-33, looked up, fragment) | 17
5 | A6: α-lactalbumin-derived deca-peptide, residues 6–15 (Table S1) (CEVFRELKDL; UniProt P00711 25-34, looked up, fragment) | 16
6 | A7: α-lactalbumin-derived deca-peptide, residues 7–16 (Table S1) (EVFRELKDLK; UniProt P00711 26-35, looked up, fragment) | 18
7 | A9: α-lactalbumin-derived deca-peptide, residues 9–18 (Table S1) (FRELKDLKGY; UniProt P00711 28-37, looked up, fragment) | 17
8 | B1: α-lactalbumin-derived deca-peptide, residues 12–21 (Table S1) (LKDLKGYGGV; UniProt P00711 31-40, looked up, fragment) | 11
9 | B2: α-lactalbumin-derived deca-peptide, residues 13–22 (Table S1) (KDLKGYGGVS; UniProt P00711 32-41, looked up, fragment) | 11
10 | B3: α-lactalbumin-derived deca-peptide, residues 14–23 (Table S1) (DIDGYGGIAL; UniProt P00709 33-42, looked up, fragment) | 13
11 | B4: α-lactalbumin-derived deca-peptide, residues 15–24 (Table S1) (LKGYGGVSLP; UniProt P00711 34-43, looked up, fragment) | 13
12 | B5: α-lactalbumin-derived deca-peptide, residues 16–25 (Table S1) (KGYGGVSLPE; UniProt P00711 35-44, looked up, fragment) | 11
13 | B7: α-lactalbumin-derived deca-peptide, residues 18–27 (Table S1) (YGGVSLPEWV; UniProt P00711 37-46, looked up, fragment) | 15
14 | B8: α-lactalbumin-derived deca-peptide, residues 19–28 (Table S1) (GGVSLPEWVC; UniProt P00711 38-47, looked up, fragment) | 15
15 | B9: α-lactalbumin-derived deca-peptide, residues 20–29 (Table S1) (GVSLPEWVCT; UniProt P00711 39-48, looked up, fragment) | 15
16 | C2: α-lactalbumin-derived deca-peptide, residues 24–33 (Table S1) (PEWVCTTFHT; UniProt P00711 43-52, looked up, fragment) | 14

Row | Substance | Percent inhibition of DPP-IV activity, SPOT-synthesized deca-peptides [%]
17 | C3: α-lactalbumin-derived deca-peptide, residues 25–34 (Table S1) (ELICTMFHTS; UniProt P00709 44-53, looked up, fragment) | 18
18 | C4: α-lactalbumin-derived deca-peptide, residues 26–35 (Table S1) (WVCTTFHTSG; UniProt P00711 45-54, looked up, fragment) | 26
19 | C5: α-lactalbumin-derived deca-peptide, residues 27–36 (Table S1) (ICTMFHTSGY; UniProt P00709 46-55, looked up, fragment) | 16
20 | C6: α-lactalbumin-derived deca-peptide, residues 28–37 (Table S1) (CTTFHTSGYD; UniProt P00711 47-56, looked up, fragment) | 10
21 | C7: α-lactalbumin-derived deca-peptide, residues 29–38 (Table S1) (TTFHTSGYDT; UniProt P00711 48-57, looked up, fragment) | 5
22 | C8: α-lactalbumin-derived deca-peptide, residues 30–39 (Table S1) (TFHTSGYDTQ; UniProt P00711 49-58, looked up, fragment) | 13
23 | D1: α-lactalbumin-derived deca-peptide, residues 34–43 (Table S1) (SGYDTQAIVE; UniProt P00709 53-62, looked up, fragment) | 11
24 | D2: α-lactalbumin-derived deca-peptide, residues 35–44 (Table S1) (GYDTQAIVQN; UniProt P00711 54-63, looked up, fragment) | 9
25 | D3: α-lactalbumin-derived deca-peptide, residues 36–45 (Table S1) (YDTQAIVENN; UniProt P00709 55-64, looked up, fragment) | 11
26 | D5: α-lactalbumin-derived deca-peptide, residues 38–47 (Table S1) (TQAIVQNNDS; UniProt P00711 57-66, looked up, fragment) | 14
27 | D6: α-lactalbumin-derived deca-peptide, residues 39–48 (Table S1) (QAIVQNNDST; UniProt P00711 58-67, looked up, fragment) | 14
28 | ELKDLKGYGG [A11] | 8
29 | G1: α-lactalbumin-derived deca-peptide, residues 67–76 (Table S1) (PHSSNICNIS; UniProt P00711 86-95, looked up, fragment) | 11
30 | G2: α-lactalbumin-derived deca-peptide, residues 68–77 (Table S1) (HSSNICNISC; UniProt P00711 87-96, looked up, fragment) | 9
31 | G3: α-lactalbumin-derived deca-peptide, residues 69–78 (Table S1) (SSNICNISCD; UniProt P00711 88-97, looked up, fragment) | 16

Further lines, results first:

Row | Percent inhibition of DPP-IV activity, SPOT-synthesized deca-peptides [%] | Substance
32 | 21 | AHKALCSEKL [J7]
33 | 11 | AIVQNNDSTE [D7]
34 | 21 | ALCSEKLDQW [J10]
35 | 22 | CDKFLDDDLT [G11]
36 | 22 | CSEKLDQWLC [K1]
37 | 15 | DDQNPHSSNI [F8]
38 | 15 | DQNPHSSNIC [F9]
39 | 14 | DSTEYGLFQI [E2]
40 | 24 | EKLDQWLCEK [K3]
41 | 10 | EYGLFQINNK [E5]
42 | 20 | FQINNKIWCK [E9]
